Assay results published in FireProtDB (doi:10.1016/j.jmb.2009.04.068).
Values joined by “and” are separate entries in the source; they are usually repeats but may differ in a detail not shown here. Identical values can stand only once.

B1: Neurotensin receptor type 1, P20789 (parent)
chain: MHLNSSVPQGTPGEPDAQPFSGPQSEMEATFLALSLSNGSGNTSESDTAGPNSDLDVNTDIYSKVLVTAIYLALFVVGTVGNSVTAFTLARKKSLQSLQSTVHYHLGSLALSDLLILLLAMPVELYNFIWVHHPWAFGDAGCRGYYFLRDACTYATALNVASLSVERYLAICHPFKAKTLMSRSRTKKFISAIWLASALLAIPMLFTMGLQNRSGDGTHPGGLVCTPIVDTATVKVVIQVNTFMSFLFPMLVISILNTVIANKLTVMVHQAAEQGRVCTVGTHNGLEHSTFNMTIEPGRVQALRHGVLVLRAVVIAFVVCWLPYHVRRLMFCYISDEQWTTFLFDFYHYFYMLTNALFYVSSAINPILYNLVSANFRQVFLSTLACLCPGWRHRRKKRPTFSRKPNSMSSNHAFSTSATRETLY

Variants of: B1
Settings: Rattus norvegicus; pH 7.4; Heat treatment; Activity; Tris-HCl 50 mM; structure 4BUO; whole UniProt chain shown

Variant	change of melting temperature, mutant - wild type (higher = more stable)	Tm
MHLNSSVPQGTPGEPDAQPFSGPQSEMEATFLALSLSNGSGNTSESDTAGPNSDLDVNTDIYSKVLVTAIYLALFVVGTVGNSVTAFTLARKKSLQSLQSTVHYHLGSLALSDLLILLLAMPVELYNFIWVHHPWAFGDAGCRGYYFLRDACTYATALNVASLSVERYLAICHPFKAKTLMSRSRTKKFISAIWLASALLAIPMLFTMGLQNRSGDGTHPGGLVCTPIVDTATVKVVIQVNTFMSFLFPMLVISILNTVIANKLTVMVHQAAEQGRVCTVGTHNGLEHSTFNMTIEPGRVQALRHGVLVLRAVVIAFVVCWLPYHVRRLMFCYISDEQWTTFLFDFYHYFYMLTNALAYVSSAINPILYNLVSANFRQVFLSTLACLCPGWRHRRKKRPTFSRKPNSMSSNHAFSTSATRETLY [F358A]	7 °C	
MHLNSSVPQGTPGEPDAQPFSGPQSEMEATFLALSLSNGSGNTSESDTAGPNSDLDVNTDIYSKVLVTAIYLALFVVGTVGNSVTLFTLARKKSLQSLQSTVHYHLGSLALSDLLILLLAMPVELYNFIWVHHPWAFGDAGCRGYYFLRDACTYATALNVASLSVERYLAICHPFKAKTLMSRSRTKKFISAIWLASALLAIPMLFTMGLQNRSGDGTHPGGLVCTPIVDTATVKVVIQVNTFMSFLFPMLVISILNTVIANKLTVMVHQAAEQGRVCTVGTHNGLEHSTFNMTIEPGRVQALRHGVLVLRAVVIAFVVCWLPYHVRRLMFCYISDEQWTTFLFDFYHYFYMLTNALFYVSSAINPILYNLVSANFRQVFLSTLACLCPGWRHRRKKRPTFSRKPNSMSSNHAFSTSATRETLY [A86L]		37 °C and 39 °C
MHLNSSVPQGTPGEPDAQPFSGPQSEMEATFLALSLSNGSGNTSESDTAGPNSDLDVNTDIYSKVLVTAIYLALFVVGTVGNSVTAFTLARKKSLQSLQSTVAYHLGSLALSDLLILLLAMPVELYNFIWVHHPWAFGDAGCRGYYFLRDACTYATALNVASLSVERYLAICHPFKAKTLMSRSRTKKFISAIWLASALLAIPMLFTMGLQNRSGDGTHPGGLVCTPIVDTATVKVVIQVNTFMSFLFPMLVISILNTVIANKLTVMVHQAAEQGRVCTVGTHNGLEHSTFNMTIEPGRVQALRHGVLVLRAVVIAFVVCWLPYHVRRLMFCYISDEQWTTFLFDFYHYFYMLTNALFYVSSAINPILYNLVSANFRQVFLSTLACLCPGWRHRRKKRPTFSRKPNSMSSNHAFSTSATRETLY [H103A]		34 °C and 36 °C
MHLNSSVPQGTPGEPDAQPFSGPQSEMEATFLALSLSNGSGNTSESDTAGPNSDLDVNTDIYSKVLVTAIYLALFVVGTVGNSVTLFTLARKKSLQSLQSTVHYHLGSLALSDLLILLLAMPVELYNFIWVHHPWAFGDAGCRGYYFLRDACTYATALNVASLSVERYLAICHPFKAKTLMSRSRTKKFISAIWLASALLAIPMLFTMGLQNRSGDGTHPGGLVCTPIVDTATVKVVIQVNTFMSFLFPMLVISILNTVIANKLTVMVHQAAEQGRVCTVGTHNGLEHSTFNMTIEPGRVQALRHGVLVLRAVVIAFVVCWLPYHVRRLMFCYISDEQWTTFLFDFYHYFYMLTNALAYVSSAINPILYNLVSANFRQVFLSTLACLCPGWRHRRKKRPTFSRKPNSMSSNHAFSTSATRETLY [A86L F358A]		48 °C

Same assay, conditions: Rattus norvegicus; pH 7.4; Thermal; Activity; Tris-HCl 50 mM; structure 4BUO; whole UniProt chain shown

Variant	change of melting temperature, mutant - wild type (higher = more stable)	Tm
MHLNSSVPQGTPGEPDAQPFSGPQSEMEATFLALSLSNGSGNTSESDTAGPNSDLDVNTDIYSKVLVTAIYLALFVVGTVGNSVTAFTLARKKSLQSLQSTVHYHLGSLALSDLLILLLAMPVELYNFIWVHHPWAFGDAGCRGYYFLRDACTYATALNVASLSVERYLAICHPFKAKTLMSRSRTKKFISAIWLASALLAIPMLFTMGLQNRSGDGTHPGGLVCTPIVDTATVKVVIQVNTFMSFLFPMLVISILNTVIANKLTVMVHQAAEQGRVCTVGTHNGLEHSTFNMTIEPGRVQALRHGVLVLRAVVIAFVVCWLPYHVRRLMFCYISDEQWTTFLFDFYHYFYMLTNALAYVSSAINPILYNLVSANFRQVFLSTLACLCPGWRHRRKKRPTFSRKPNSMSSNHAFSTSATRETLY [F358A]	3 °C and 8 °C	
MHLNSSVPQGTPGEPDAQPFSGPQSEMEATFLALSLSNGSGNTSESDTAGPNSDLDVNTDIYSKVLVTAIYLALFVVGTVGNSVTLFTLARKKSLQSLQSTVHYHLGSLALSDLLILLLAMPVELYNFIWVHHPWAFGDAGCRGYYFLRDACTYATALNVASLSVERYLAICHPFKAKTLMSRSRTKKFISAIWLASALLAIPMLFTMGLQNRSGDGTHPGGLVCTPIVDTATVKVVIQVNTFMSFLFPMLVISILNTVIANKLTVMVHQAAEQGRVCTVGTHNGLEHSTFNMTIEPGRVQALRHGVLVLRAVVIAFVVCWLPYHVRRLMFCYISDEQWTTFLFDFYHYFYMLTNALFYVSSAINPILYNLVSANFRQVFLSTLACLCPGWRHRRKKRPTFSRKPNSMSSNHAFSTSATRETLY [A86L]	8 °C	33 °C
MHLNSSVPQGTPGEPDAQPFSGPQSEMEATFLALSLSNGSGNTSESDTAGPNSDLDVNTDIYSKVLVTAIYLALFVVGTVGNSVTLFTLARKKSLQSLQSTVHYHLGSLALSDLLILLLAMPVELYNFIWVHHPWAFGDAGCRGYYFLRDACTYATALNVASLSVERYLAICHPFKAKTLMSRSRTKKFISAIWLASALLAIPMLFTMGLQNRSGDGTHPGGLVCTPIVDTATVKVVIQVNTFMSFLFPMLVISILNTVIANKLTVMVHQAAEQGRVCTVGTHNGLEHSTFNMTIEPGRVQALRHGVLVLRAVVIAFVVCWLPYHVRRLMFCYISDEQWTTFLFDFYHYFYMLTNALAYVSSAINPILYNLVSANFRQVFLSTLACLCPGWRHRRKKRPTFSRKPNSMSSNHAFSTSATRETLY [A86L F358A]	11 °C and 10 °C	
